How the values were obtained:
AncSZ = experiment: phosphorylation enrichment, bacterial display (enrichment ratio); higher = better substrate or ligand; peptides without Tyr show the background
EPHB1 = EPHB1 (UniProt P54762); experiment: as above
EPHB2 = EPHB2 (UniProt P29323); experiment: as above
FGFR1 = FGFR1 (UniProt P11362); experiment: as above
FGFR3 = FGFR3 (UniProt P22607); experiment: as above
Fer (mouse) = experiment: as above
Fes = Fes (UniProt P07332); experiment: as above
Fyn = Fyn (UniProt P06241); experiment: as above
Hck = Hck (UniProt P08631); experiment: as above
Jak2 = Jak2 (UniProt O60674); experiment: as above
MERTK = MERTK (UniProt Q12866); experiment: as above
c-Abl (mouse) = experiment: as above
c-Src = experiment: as above
Grb2 SH2 = Grb2 SH2 (UniProt P62993); experiment: SH2 binding enrichment of the phosphorylated peptide, bacterial display (enrichment ratio); higher = better substrate or ligand; peptides without Tyr show the background
SHP2-C SH2 = experiment: as above
c-Src SH2 = experiment: as above
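Throughout, for SH2 binding enrichment of the phosphorylated peptide, bacterial display: peptide library displayed on the E. coli surface as eCPX fusions, selected cells deep-sequenced, score is each peptide's frequency after selection divided by its frequency in the input.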
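Throughout, for phosphorylation enrichment, bacterial display: 11-residue human phosphosite peptides and single-mutation variants displayed on the E. coli surface, counted by deep sequencing, each peptide's frequency after selection divided by its frequency in the unselected input library; frequency after pTyr selection over input frequency; kinase dosed for 20-30% of maximal phosphorylation in three min.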

Chain of FGFR3 (P22607 whole entry, looked up): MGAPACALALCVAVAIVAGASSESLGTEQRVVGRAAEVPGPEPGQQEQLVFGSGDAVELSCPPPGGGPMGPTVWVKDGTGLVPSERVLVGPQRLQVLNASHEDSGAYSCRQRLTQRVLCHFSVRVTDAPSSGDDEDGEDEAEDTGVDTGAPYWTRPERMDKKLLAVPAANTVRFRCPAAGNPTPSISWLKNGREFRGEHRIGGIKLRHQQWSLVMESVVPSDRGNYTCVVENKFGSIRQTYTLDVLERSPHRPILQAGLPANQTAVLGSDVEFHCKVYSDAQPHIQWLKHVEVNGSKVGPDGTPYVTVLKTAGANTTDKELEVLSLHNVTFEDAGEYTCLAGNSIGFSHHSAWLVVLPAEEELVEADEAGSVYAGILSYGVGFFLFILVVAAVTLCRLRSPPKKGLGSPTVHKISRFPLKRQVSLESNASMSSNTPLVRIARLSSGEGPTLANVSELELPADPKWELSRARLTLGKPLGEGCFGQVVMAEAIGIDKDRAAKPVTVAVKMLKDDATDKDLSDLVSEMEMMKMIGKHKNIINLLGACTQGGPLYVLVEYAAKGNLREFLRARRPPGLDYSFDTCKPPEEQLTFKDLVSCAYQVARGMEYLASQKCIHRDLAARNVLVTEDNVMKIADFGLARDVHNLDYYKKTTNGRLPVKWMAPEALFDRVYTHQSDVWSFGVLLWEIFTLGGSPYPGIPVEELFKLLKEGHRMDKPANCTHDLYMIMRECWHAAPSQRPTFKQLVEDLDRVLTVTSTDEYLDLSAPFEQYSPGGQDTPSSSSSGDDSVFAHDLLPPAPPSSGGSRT
Chain of EPHB1 (P54762 whole entry, looked up): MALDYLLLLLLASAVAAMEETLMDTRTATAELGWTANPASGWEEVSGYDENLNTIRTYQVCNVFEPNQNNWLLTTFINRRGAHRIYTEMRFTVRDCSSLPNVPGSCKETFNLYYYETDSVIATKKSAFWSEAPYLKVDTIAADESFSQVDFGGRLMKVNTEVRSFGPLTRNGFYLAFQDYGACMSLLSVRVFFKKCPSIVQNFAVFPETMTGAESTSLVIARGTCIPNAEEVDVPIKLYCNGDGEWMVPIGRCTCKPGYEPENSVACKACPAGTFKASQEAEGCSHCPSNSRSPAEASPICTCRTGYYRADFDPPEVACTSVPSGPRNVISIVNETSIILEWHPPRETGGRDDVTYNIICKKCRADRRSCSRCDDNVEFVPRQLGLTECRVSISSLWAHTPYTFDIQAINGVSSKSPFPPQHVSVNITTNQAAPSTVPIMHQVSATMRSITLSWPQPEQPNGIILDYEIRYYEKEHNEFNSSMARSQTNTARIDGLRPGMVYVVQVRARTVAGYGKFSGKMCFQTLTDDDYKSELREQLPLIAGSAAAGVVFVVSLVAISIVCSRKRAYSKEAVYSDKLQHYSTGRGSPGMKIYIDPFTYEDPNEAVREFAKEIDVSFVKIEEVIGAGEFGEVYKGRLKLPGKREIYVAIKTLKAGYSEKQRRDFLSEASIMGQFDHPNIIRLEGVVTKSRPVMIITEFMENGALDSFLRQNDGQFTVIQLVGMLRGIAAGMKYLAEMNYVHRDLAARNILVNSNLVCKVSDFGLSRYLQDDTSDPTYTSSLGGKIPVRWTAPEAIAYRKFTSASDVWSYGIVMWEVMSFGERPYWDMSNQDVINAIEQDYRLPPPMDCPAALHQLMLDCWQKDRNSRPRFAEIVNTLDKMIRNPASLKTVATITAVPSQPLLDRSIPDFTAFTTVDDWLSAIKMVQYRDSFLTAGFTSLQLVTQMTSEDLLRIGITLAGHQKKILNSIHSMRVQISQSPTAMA
Chain of FGFR1 (P11362 whole entry, looked up): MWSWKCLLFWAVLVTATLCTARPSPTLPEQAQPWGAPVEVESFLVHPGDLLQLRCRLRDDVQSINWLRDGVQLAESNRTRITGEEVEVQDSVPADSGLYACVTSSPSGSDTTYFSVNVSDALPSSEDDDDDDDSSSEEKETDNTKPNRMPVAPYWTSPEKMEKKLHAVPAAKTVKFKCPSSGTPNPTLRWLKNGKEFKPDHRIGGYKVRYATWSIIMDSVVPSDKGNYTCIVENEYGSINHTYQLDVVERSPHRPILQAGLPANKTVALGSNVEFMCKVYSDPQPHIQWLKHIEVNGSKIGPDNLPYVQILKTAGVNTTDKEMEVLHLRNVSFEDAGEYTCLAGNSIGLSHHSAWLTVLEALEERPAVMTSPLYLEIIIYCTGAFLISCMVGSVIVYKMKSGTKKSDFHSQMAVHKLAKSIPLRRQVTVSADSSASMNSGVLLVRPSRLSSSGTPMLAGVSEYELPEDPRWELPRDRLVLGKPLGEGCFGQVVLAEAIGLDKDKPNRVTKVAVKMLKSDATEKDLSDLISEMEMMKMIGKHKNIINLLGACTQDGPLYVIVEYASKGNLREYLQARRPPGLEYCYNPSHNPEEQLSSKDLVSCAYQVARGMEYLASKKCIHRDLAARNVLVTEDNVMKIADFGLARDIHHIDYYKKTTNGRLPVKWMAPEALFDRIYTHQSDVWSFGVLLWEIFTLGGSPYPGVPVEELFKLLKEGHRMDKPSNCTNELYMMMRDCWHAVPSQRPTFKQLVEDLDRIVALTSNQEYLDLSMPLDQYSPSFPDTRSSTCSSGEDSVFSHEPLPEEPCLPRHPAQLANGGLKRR
Chain of EPHB2 (P29323 whole entry, looked up): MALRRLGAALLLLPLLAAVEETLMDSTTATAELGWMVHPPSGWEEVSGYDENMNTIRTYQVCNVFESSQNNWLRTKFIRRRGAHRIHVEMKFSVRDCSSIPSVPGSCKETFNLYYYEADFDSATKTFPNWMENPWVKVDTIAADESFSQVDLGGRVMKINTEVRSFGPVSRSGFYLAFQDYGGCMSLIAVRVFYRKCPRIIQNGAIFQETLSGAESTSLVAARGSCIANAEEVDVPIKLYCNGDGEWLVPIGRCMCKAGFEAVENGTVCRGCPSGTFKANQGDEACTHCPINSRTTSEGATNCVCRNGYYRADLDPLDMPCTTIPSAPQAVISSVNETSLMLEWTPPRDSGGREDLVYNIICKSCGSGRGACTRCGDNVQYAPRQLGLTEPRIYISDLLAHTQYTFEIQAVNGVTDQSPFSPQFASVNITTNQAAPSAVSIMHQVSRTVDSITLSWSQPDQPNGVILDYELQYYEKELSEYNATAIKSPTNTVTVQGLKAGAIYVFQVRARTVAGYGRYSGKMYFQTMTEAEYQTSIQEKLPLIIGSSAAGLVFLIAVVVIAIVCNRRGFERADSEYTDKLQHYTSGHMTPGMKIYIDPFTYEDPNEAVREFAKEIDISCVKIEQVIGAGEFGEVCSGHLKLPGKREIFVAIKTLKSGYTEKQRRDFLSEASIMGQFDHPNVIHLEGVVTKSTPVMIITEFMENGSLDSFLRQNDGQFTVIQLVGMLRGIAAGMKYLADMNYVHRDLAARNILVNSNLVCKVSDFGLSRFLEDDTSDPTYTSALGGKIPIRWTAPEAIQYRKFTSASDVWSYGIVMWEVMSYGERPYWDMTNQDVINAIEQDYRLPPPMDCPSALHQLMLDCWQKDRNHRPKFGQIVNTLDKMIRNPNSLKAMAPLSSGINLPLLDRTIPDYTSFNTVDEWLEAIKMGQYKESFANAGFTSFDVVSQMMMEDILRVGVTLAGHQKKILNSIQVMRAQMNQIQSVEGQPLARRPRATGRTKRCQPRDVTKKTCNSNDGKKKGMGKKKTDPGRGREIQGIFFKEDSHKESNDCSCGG
Chain of Jak2 (O60674 whole entry, looked up): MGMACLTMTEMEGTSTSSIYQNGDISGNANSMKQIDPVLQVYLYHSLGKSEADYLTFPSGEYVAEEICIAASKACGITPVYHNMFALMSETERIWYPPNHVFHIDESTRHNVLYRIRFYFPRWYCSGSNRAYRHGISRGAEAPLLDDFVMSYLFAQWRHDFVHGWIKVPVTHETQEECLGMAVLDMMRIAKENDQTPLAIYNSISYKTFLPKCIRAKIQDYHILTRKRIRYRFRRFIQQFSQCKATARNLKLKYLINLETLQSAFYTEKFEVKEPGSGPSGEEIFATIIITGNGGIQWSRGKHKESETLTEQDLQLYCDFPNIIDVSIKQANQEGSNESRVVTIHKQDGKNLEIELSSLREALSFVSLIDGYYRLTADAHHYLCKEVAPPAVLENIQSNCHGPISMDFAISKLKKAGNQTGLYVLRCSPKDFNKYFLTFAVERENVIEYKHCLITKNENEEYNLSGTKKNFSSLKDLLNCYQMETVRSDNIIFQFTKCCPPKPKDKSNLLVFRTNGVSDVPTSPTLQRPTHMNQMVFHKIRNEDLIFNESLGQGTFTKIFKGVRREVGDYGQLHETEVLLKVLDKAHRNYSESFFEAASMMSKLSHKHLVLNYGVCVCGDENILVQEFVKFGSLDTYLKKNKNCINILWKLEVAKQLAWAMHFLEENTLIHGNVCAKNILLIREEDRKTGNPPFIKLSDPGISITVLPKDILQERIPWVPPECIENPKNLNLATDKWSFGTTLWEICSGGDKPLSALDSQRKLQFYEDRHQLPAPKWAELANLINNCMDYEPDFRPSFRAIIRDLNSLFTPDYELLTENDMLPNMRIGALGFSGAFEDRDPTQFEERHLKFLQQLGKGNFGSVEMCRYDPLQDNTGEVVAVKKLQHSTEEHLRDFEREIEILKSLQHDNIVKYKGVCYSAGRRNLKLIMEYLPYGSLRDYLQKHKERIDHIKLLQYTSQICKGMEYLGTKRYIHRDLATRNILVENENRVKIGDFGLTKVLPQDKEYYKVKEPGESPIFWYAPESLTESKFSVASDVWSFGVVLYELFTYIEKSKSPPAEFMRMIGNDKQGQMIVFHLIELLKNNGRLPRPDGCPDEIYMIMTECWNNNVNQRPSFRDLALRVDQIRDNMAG

Sequence	SH2 binding enrichment (Grb2 SH2)	SH2 binding enrichment (SHP2-C SH2)	SH2 binding enrichment (c-Src SH2)	phosphorylation enrichment (AncSZ)	phosphorylation enrichment (EPHB1)	phosphorylation enrichment (EPHB2)	phosphorylation enrichment (FGFR1)	phosphorylation enrichment (FGFR3)	phosphorylation enrichment (Fer (mouse))	phosphorylation enrichment (Fes)	phosphorylation enrichment (Fyn)	phosphorylation enrichment (Hck)	phosphorylation enrichment (Jak2)	phosphorylation enrichment (MERTK)	phosphorylation enrichment (c-Abl (mouse))	phosphorylation enrichment (c-Src)
VHNLNYYKKTT [FGFR3_Y647_D646N]	1.04	0.746	0.539	0.506	0.429	0.449	0.447	0.665	0.32	0.682	0.435	0.464	0.728	0.528	0.671	0.487
QRTMKYTTATE [MCCC1_Y41_G46E]	0.768	0.635	0.521	1.43	0.791	1.43	0.683	1.11	0.607	1.23	0.781	0.966	0.975	0.862	0.496	0.706
QMQAAYQKAVA [HBD_Y131_V134A]	0.893	0.76	0.42	0.576	0.583	0.292	0.652	0.508	0.405	0.798	0.47	0.449	0.635	0.368	0.451	0.307
CTTIHYNCMCN [TP53_Y234_Y236C]	0.775	0.823	0.508	1.06	0.591	0.712	0.417	0.715	0.541	1.08	0.45	0.475	0.885	0.426	0.689	0.468
CPASVYTKRCS [CPT2_Y508_R503C]	0.982	0.765	0.584	0.598	0.349	0.403	0.447	0.441	0.354	0.549	0.434	0.392	0.518	0.447	0.442	0.431
RSSPVYVGRVV [TGM2_Y219]	1.13	1.39	0.758	1.18	0.59	0.796	0.77	0.82	0.945	1.03	1.42	2.22	1.03	0.818	1.71	1.42
DAASNYARGHY [TUBA3E_Y103]	0.784	0.743	0.524	0.522	0.383	0.524	0.495	0.463	0.342	0.519	0.353	0.475	0.428	0.44	0.533	0.43
SLTRLCVGENA [NLRP3_Y861_Y861C]	0.867	0.589	0.538	0.809	0.495	0.541	0.471	0.685	0.434	1	0.503	0.534	0.759	0.466	2.77	0.445
HLTNQFMQRVA [PABPC4_Y382_Y382F]	1.16	0.733	0.591	0.791	0.621	0.35	0.576	0.631	0.527	0.809	0.437	0.722	0.697	0.673	0.898	0.541

The next lines start with results.

SH2 binding enrichment (Grb2 SH2)	SH2 binding enrichment (SHP2-C SH2)	SH2 binding enrichment (c-Src SH2)	Sequence	phosphorylation enrichment (AncSZ)	phosphorylation enrichment (EPHB1)	phosphorylation enrichment (EPHB2)	phosphorylation enrichment (FGFR1)	phosphorylation enrichment (FGFR3)	phosphorylation enrichment (Fer (mouse))	phosphorylation enrichment (Fes)	phosphorylation enrichment (Fyn)	phosphorylation enrichment (Hck)	phosphorylation enrichment (Jak2)	phosphorylation enrichment (MERTK)	phosphorylation enrichment (c-Abl (mouse))	phosphorylation enrichment (c-Src)
1.49	1.64	1.05	MKNQKYGRIIM [HSD17B4_Y143_K140N]	0.527	0.376	0.34	0.433	0.386	0.341	0.646	0.424	0.439	0.587	0.301	0.54	0.301
0.97	0.654	0.741	SSWPGYVRPLP [HSPB1_Y54]	0.774	0.48	0.423	0.491	0.458	0.459	0.648	0.52	0.485	2.22	0.407	0.54	0.491
1.45	1.28	0.74	PPLMLYNPTTY [EGFR_Y270]	0.518	1	0.718	0.43	0.498	0.613	10.3	0.633	1.01	0.625	0.472	0.541	0.645
0.84	0.759	0.544	FEKFLYFLPAS [DYNC2H1_Y346_H341Y_YF]	1.5	0.8	0.735	0.474	0.852	0.55	1.48	0.733	0.884	2.67	1.95	0.896	0.76
0.906	0.755	0.742	GKFFQYDTWKQ [IGF2_Y116]	0.766	0.498	0.564	0.407	0.514	0.468	0.852	0.43	0.826	0.601	0.485	0.582	0.567
0.892	0.811	0.475	NTGLDYIKFTW [HRH1_Y386]	1.37	0.647	0.742	1.64	1.26	0.402	1.31	0.39	0.495	1.92	0.605	0.902	0.612
4.36	0.752	1.07	LAARYYNWVCF [FLT4_Y1231_S1235C]	1.37	0.899	0.615	1.96	1.94	1.39	1.51	0.777	0.588	1.11	1.04	0.977	0.512

— the supplement of paper PMC10065799, “High-throughput profiling of sequence recognition by tyrosine kinases and SH2 domains using bacterial peptide display” (eLife, 2023)
